Read-outs that look alike come from different tables or passages of the source.
Key:
Experiment in all cases: NMR HSQC titration
TDP-43 CTD WT [1] = biological target: T1, TDP-43 CTD WT (Homo sapiens, UniProt Q13148 267-414)
TDP-43 CTD WT [2] = biological target: T1, TDP-43 CTD WT; remark: listed apart in the source
TDP-43 CTD WT [3] = biological target: T1, TDP-43 CTD WT; remark: listed apart in the source
TDP-43 CTD WT [4] = biological target: T1, TDP-43 CTD WT; remark: listed apart in the source
TDP-43 CTD WT [5] = biological target: T1, TDP-43 CTD WT; remark: listed apart in the source
TDP-43 CTD WT [6] = biological target: T1, TDP-43 CTD WT; remark: listed apart in the source
TDP-43 CTD WT [7] = biological target: T1, TDP-43 CTD WT; remark: listed apart in the source

T1 sequence (Q13148 267-414): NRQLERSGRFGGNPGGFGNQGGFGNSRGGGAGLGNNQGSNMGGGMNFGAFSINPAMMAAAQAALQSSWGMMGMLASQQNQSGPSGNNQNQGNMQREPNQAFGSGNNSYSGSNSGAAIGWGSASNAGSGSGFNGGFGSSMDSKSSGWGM

B1: dA12 (ssDNA)
DNA: AAAAAAAAAAAA
binding result (TDP-43 CTD WT [1]): binds

B2: c-Myc G4 (structured_DNA)
DNA: GCTTATGGGGAGGGTGGGGAGGGTGGGGAAGGTG
binding result (TDP-43 CTD WT [2]): binds

B3: dG12 (structured_DNA)
DNA: GGGGGGGGGGGG
binding result (TDP-43 CTD WT [3]): binds

B4: dT12 (ssDNA)
DNA: TTTTTTTTTTTT
binding result (TDP-43 CTD WT [4]): binds

B5: dU12 (ssDNA)
DNA: UUUUUUUUUUUU
modifications: deoxyuridine (DNA backbone) throughout
binding result (TDP-43 CTD WT [5]): binds

B6: (TG)17 (ssDNA)
DNA: TGTGTGTGTGTGTGTGTGTGTGTGTGTGTGTGTG
binding result (TDP-43 CTD WT [6]): binds

B7: c-Myc I-motif (structured_DNA)
DNA: CACCTTCCCCACCCTCCCCACCCTCCCCATAAGC
binding result (TDP-43 CTD WT [7]): binds

B8: dC12 (structured_DNA)
DNA: CCCCCCCCCCCC
binding result (TDP-43 CTD WT [3]): binds

Reference: article doi:10.64898/2025.12.22.695782
